Measured values: patent US20210330692, “CCR7 APTAMERS AND USES THEREOF” (CITY OF HOPE, published 2021)

Biological target: CCR7 (UniProt P32248 P32248:25-378)
Assay: EMSA; + in gel shift assay

Sequence of CCR7 (P32248 25-378, one chain of several): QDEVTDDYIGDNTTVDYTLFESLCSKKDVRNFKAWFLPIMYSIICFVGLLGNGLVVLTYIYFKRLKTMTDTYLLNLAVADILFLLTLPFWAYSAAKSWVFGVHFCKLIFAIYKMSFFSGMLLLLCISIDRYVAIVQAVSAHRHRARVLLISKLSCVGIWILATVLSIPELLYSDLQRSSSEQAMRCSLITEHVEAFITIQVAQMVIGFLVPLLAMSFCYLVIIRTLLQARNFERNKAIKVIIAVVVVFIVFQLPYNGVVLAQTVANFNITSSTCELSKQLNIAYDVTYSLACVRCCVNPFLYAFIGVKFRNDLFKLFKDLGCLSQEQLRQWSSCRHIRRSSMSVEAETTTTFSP

B1: C-6 (ssRNA)
RNA: GGGAGGACGAUGCGGUCCAUCGUCUCUUAUCGUCUCUUGUCGCGCCAGACGACUCGCCCGA
binding result: binds
